Where no end group is shown, it is not given here. The star is where a group is joined. For = O=C*
Assays:
[1] = target: T1, FLAG-tagged mouse Fpr2 (Mm_Fpr2) (mouse, UniProt O88536 1-351)
T1 sequence (looked up): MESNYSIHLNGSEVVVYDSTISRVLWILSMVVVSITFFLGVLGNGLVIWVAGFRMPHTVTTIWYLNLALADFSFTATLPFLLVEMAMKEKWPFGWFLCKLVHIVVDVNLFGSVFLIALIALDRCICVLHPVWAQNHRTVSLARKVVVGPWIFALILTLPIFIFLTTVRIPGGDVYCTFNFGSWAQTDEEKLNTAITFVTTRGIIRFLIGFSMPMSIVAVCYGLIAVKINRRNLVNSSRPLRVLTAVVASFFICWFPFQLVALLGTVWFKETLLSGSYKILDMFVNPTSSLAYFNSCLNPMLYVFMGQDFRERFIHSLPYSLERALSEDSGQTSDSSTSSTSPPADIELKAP

[2] = target: T1, FLAG-tagged mouse Fpr2 (Mm_Fpr2); remark: listed apart in the source
[3] = target: T2, FLAG-tagged human FPR1 (Hs_FPR1) (human, UniProt P21462 1-350)
T2 sequence (looked up): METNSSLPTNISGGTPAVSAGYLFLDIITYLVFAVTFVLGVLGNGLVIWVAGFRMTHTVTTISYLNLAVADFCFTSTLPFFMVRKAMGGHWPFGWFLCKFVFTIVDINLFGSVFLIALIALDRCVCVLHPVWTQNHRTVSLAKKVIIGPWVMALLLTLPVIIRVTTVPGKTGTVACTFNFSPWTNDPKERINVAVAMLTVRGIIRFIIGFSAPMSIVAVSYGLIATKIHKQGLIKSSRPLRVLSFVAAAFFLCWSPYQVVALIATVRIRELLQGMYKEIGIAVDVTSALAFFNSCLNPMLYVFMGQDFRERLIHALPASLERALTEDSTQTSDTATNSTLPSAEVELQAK

[4] = target: T3, FLAG-tagged mouse Fpr1 (Mm_Fpr1) (mouse, UniProt P33766 1-364)
T3 sequence (looked up): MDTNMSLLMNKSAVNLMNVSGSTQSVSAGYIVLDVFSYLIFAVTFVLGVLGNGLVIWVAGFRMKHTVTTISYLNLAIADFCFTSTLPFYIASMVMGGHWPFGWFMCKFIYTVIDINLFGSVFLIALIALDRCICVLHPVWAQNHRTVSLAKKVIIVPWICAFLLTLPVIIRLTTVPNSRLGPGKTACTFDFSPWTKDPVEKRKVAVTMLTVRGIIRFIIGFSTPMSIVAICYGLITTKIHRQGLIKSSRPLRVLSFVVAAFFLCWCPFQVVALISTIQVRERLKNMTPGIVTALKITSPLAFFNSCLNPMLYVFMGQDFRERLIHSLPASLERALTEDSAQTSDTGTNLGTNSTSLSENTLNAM

[5] = target: T4, FLAG-tagged human FPR2 (Hs_FPR2) (human, UniProt P25090 1-351)
T4 sequence (looked up): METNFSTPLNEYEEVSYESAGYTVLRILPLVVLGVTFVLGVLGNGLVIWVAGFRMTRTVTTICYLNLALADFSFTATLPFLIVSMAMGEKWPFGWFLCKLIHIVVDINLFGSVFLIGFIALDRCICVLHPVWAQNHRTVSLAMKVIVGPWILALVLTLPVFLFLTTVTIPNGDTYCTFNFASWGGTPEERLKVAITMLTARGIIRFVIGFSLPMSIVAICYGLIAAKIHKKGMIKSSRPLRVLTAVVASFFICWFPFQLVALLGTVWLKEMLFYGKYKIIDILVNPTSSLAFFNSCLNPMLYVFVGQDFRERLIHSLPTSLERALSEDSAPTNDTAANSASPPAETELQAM

[6] = target: T2, FLAG-tagged human FPR1 (Hs_FPR1); remark: listed apart in the source
[7] = target: T3, FLAG-tagged mouse Fpr1 (Mm_Fpr1); remark: listed apart in the source
[8] = target: T4, FLAG-tagged human FPR2 (Hs_FPR2); remark: listed apart in the source
[9] = target: T5, FLAG-Mm_Fpr2 C-terminally fused to Renilla Luciferase 8 (mouse, UniProt O88536 1-351); assay: cell-based or functional assay
T5 sequence (looked up): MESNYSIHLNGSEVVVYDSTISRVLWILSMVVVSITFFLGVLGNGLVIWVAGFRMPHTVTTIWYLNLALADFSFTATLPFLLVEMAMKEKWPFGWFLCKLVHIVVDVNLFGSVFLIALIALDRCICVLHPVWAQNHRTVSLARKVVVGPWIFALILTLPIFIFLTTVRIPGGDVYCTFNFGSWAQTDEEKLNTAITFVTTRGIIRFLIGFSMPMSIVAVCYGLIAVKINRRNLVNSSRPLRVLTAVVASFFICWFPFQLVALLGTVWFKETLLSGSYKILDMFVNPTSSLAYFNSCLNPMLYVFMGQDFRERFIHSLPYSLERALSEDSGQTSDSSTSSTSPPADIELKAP

[10] = target: T6, FLAG-Hs_FPR1 C-terminally fused to Renilla Luciferase 8 (human, UniProt P21462 1-350); assay: cell-based or functional assay
T6 sequence (looked up): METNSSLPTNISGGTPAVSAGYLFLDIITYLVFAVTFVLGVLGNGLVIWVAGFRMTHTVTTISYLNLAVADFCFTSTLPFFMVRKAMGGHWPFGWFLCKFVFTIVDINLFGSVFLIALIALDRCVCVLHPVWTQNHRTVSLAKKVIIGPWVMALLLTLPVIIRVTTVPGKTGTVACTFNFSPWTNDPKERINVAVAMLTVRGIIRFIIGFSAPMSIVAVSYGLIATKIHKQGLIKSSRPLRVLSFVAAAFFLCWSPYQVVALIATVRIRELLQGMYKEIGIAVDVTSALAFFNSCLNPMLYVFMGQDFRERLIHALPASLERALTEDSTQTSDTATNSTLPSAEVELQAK

[11] = target: T7, FLAG-Hs_FPR2 C-terminally fused to Renilla Luciferase 8 (human, UniProt P25090 1-351); assay: cell-based or functional assay
T7 sequence (looked up): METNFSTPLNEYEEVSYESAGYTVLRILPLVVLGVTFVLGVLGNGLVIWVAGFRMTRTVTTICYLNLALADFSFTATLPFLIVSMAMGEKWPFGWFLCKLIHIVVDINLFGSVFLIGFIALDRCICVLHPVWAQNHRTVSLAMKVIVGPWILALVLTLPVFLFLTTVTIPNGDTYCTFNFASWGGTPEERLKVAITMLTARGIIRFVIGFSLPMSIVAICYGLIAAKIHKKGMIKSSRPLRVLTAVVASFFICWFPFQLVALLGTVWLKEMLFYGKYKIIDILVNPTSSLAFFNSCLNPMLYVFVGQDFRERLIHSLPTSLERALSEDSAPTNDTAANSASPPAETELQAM

[12] = target: T8, FLAG-Mm_Fpr1 C-terminally fused to Renilla Luciferase 8 (mouse, UniProt P33766 1-364); assay: cell-based or functional assay
T8 sequence (looked up): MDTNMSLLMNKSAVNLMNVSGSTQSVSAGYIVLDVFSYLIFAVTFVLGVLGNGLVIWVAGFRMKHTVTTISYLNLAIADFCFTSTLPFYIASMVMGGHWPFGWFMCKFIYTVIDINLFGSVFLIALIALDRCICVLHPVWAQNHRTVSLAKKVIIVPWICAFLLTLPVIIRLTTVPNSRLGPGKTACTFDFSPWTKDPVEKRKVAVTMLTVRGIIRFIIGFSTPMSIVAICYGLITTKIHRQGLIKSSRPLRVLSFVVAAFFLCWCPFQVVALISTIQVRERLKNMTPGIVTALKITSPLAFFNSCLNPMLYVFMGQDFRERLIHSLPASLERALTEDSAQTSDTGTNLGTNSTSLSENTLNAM

[13] = target: T2, FLAG-tagged human FPR1 (Hs_FPR1); assay: flow cytometry on cells; competition binding: HEK293 cells stably expressing the receptor, lifted in PBS, on ice 90 min with 10 nM K(5/6-FAM)-WKYMVm and increasing unlabeled ligand; mean fluorescence of 5000 cells as % of that without competitor; One site-Fit logIC50
[14] = target: T5, FLAG-Mm_Fpr2 C-terminally fused to …; assay: cell-based or functional assay; remark: listed apart in the source
[15] = target: T6, FLAG-Hs_FPR1 C-terminally fused to …; assay: cell-based or functional assay; remark: listed apart in the source
[16] = target: T7, FLAG-Hs_FPR2 C-terminally fused to …; assay: cell-based or functional assay; remark: listed apart in the source
[17] = target: T8, FLAG-Mm_Fpr1 C-terminally fused to …; assay: cell-based or functional assay; remark: listed apart in the source

B1: MCT-2 (Formyl-… from Cytochrome b) (peptide)
peptide: For-MTPMRKINPLMKLIN
[1]
  ERK1/2 phosphorylation (Western blot): Emax (% of 1 μM WKYMVm): 169%
  ERK1/2 phosphorylation (Western blot): Log EC50 (M): -6.96 log M
[2]
  receptor internalization (flow cytometry): Emax (% of 1 μM WKYMVm): 43.9%
  receptor internalization (flow cytometry): Log EC50 (M): -8.24 log M

B2: fMet-Leu-Phe-Lys (fMLFK) (peptide)
peptide: For-MLFK
[1]
  ERK1/2 phosphorylation (Western blot): Emax (% of 1 μM WKYMVm): 176%
  ERK1/2 phosphorylation (Western blot): Log EC50 (M): -5.91 log M
[3]
  ERK1/2 phosphorylation (Western blot): Emax (% of 1 μM WKYMVm): 112%
  ERK1/2 phosphorylation (Western blot): Log EC50 (M): -8.16 log M
[4]
  ERK1/2 phosphorylation (Western blot): Emax (% of 1 μM WKYMVm): 140%
  ERK1/2 phosphorylation (Western blot): Log EC50 (M): -6.07 log M
[5]
  ERK1/2 phosphorylation (Western blot): Emax (% of 1 μM WKYMVm): 74.3%
  ERK1/2 phosphorylation (Western blot): Log EC50 (M): -5.88 log M
[2]
  receptor internalization (flow cytometry): Emax (% of 1 μM WKYMVm): 81.6%
  receptor internalization (flow cytometry): Log EC50 (M): -4.94 log M
[6]
  receptor internalization (flow cytometry): Emax (% of 1 μM WKYMVm): 79.3%
  receptor internalization (flow cytometry): Log EC50 (M): -7.79 log M
[7]
  receptor internalization (flow cytometry): Emax (% of 1 μM WKYMVm): 179%
  receptor internalization (flow cytometry): Log EC50 (M): -5.21 log M
[8]
  receptor internalization (flow cytometry): Emax (% of 1 μM WKYMVm): 99.9%
  receptor internalization (flow cytometry): Log EC50 (M): -4.48 log M
[9]
  BRET of receptor-RLuc8 with Arrestin 3-YFP: Emax (% of 1 μM WKYMVm): 72.5%
  BRET of receptor-RLuc8 with Arrestin 3-YFP: Log EC50 (M): -4.79 log M
[10]
  BRET of receptor-RLuc8 with Arrestin 3-YFP: Emax (% of 1 μM WKYMVm): 97.4%
  BRET of receptor-RLuc8 with Arrestin 3-YFP: Log EC50 (M): -7.45 log M
[11]
  BRET of receptor-RLuc8 with Arrestin 3-YFP: Emax (% of 1 μM WKYMVm): 92.7%
  BRET of receptor-RLuc8 with Arrestin 3-YFP: Log EC50 (M): -4.44 log M
[12]
  BRET of receptor-RLuc8 with Arrestin 3-YFP: Emax (% of 1 μM WKYMVm): 95.2%
  BRET of receptor-RLuc8 with Arrestin 3-YFP: Log EC50 (M): -5.14 log M
[13]
  Log IC50: -6.23 log M
  Max Comp (%): 63.3%
[14]
  BRET of receptor-RLuc8 with Venus-mGsi: Emax (% of 1 μM WKYMVm): 82.7%
  BRET of receptor-RLuc8 with Venus-mGsi: Log EC50 (M): -4.52 log M
[15]
  BRET of receptor-RLuc8 with Venus-mGsi: Emax (% of 1 μM WKYMVm): 104%
  BRET of receptor-RLuc8 with Venus-mGsi: Log EC50 (M): -7.07 log M
[16]
  BRET of receptor-RLuc8 with Venus-mGsi: Emax (% of 1 μM WKYMVm): 80.7%
  BRET of receptor-RLuc8 with Venus-mGsi: Log EC50 (M): -4.57 log M
[17]
  BRET of receptor-RLuc8 with Venus-mGsi: Emax (% of 1 μM WKYMVm): 62.9%
  BRET of receptor-RLuc8 with Venus-mGsi: Log EC50 (M): -5.02 log M

Source: PMC12881670, “Investigation into ligand selectivity and bias at the formyl peptide receptor family” (The Journal of Pharmacology and Experimental Therapeutics, 2025)
